From PMC5895705 come the findings set out here.

The target of the experiment is Glucose-6-phosphate dehydrogenase aggregates formed at 50 °C (UniProt P11411). Kind of experiment: co-sedimentation; as a1 but ClpB homo- or heterohexamers (5 μM) with G6PDH50 aggregates in the absence of DnaK.
Sequence of Glucose-6-phosphate dehydrogenase aggregates formed at 50 °C (P11411 whole entry): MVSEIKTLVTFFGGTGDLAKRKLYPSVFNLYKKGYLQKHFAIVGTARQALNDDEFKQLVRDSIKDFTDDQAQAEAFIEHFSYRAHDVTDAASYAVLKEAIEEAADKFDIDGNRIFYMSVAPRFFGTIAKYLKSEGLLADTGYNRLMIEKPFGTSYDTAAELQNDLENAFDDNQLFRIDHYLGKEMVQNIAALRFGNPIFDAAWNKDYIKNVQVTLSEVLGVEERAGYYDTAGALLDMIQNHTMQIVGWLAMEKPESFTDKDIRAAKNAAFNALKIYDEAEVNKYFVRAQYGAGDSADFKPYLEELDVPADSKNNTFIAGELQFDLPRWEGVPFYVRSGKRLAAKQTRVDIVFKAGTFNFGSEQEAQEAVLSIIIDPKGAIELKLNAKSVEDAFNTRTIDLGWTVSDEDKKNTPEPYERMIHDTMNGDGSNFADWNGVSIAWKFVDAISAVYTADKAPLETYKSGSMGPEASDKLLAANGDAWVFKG

For “ClpB_(E279A/E678A) (from UniProt P63284 1-857) (natural protein)”, the fold binding relative to wt ClpB (in the absence of DnaK) amounted to 4 fold.
